Assay results: IntAct's records for PubMed 11971877

B1: Proline-serine-threonine phosphatase-interacting protein 1 (Homo sapiens), O43586 (parent)
chain: MMPQLQFKDAFWCRDFTAHTGYEVLLQRLLDGRKMCKDMEELLRQRAQAEERYGKELVQIARKAGGQTEINSLRASFDSLKQQMENVGSSHIQLALTLREELRSLEEFRERQKEQRKKYEAVMDRVQKSKLSLYKKAMESKKTYEQKCRDADDAEQAFERISANGHQKQVEKSQNKARQCKDSATEAERVYRQSIAQLEKVRAEWEQEHRTTCEAFQLQEFDRLTILRNALWVHSNQLSMQCVKDDELYEEVRLTLEGCSIDADIDSFIQAKSTGTEPPAPVPYQNYYDREVTPLTSSPGIQPSCGMIKRFSGLLHGSPKTTSLAASAASTETLTPTPERNEGVYTAIAVQEIQGNPASPAQEYRALYDYTAQNPDELDLSAGDILEVILEGEDGWWTVERNGQRGFVPGSYLEKL
partner: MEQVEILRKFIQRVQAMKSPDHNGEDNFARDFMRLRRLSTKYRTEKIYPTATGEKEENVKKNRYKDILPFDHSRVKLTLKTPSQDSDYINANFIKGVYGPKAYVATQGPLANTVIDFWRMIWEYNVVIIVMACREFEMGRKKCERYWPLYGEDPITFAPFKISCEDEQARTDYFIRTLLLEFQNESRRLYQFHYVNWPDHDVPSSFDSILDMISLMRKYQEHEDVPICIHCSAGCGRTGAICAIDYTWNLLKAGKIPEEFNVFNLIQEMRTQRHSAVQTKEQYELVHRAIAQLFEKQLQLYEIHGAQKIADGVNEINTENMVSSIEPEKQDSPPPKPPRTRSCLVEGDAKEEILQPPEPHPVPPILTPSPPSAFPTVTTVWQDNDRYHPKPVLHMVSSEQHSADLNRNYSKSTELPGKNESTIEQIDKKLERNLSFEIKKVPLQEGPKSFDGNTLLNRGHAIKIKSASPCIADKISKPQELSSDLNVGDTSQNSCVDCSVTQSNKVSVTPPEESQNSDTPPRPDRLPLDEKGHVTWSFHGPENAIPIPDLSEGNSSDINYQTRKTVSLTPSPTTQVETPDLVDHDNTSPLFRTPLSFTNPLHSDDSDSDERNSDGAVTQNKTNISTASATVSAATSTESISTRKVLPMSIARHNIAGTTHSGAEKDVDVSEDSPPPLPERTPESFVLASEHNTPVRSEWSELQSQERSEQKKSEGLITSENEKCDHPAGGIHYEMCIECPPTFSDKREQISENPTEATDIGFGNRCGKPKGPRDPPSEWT

Variants of: B1
Settings: with ptn12_human PTPN12, Q05209

Row | effect of a mutation on the interaction | Variant
1 | decreasing interaction | E250Q
2 | decreasing interaction | A230T
